# Patent US20200270325A1 (Merck Sharp & Dohme, published 2020)
# Numbered stars: 1 amine (or outer) side, 2 acyl side, 3 side chain; on linkers, the order of the positions; unused ones are H or OH. Square brackets hold non-standard residues; d marks the D form. Side chains are listed from the residue outwards. Ends that are not written are not given here. * marks the point of attachment. Phe(4-CH2NH2) = NCc1ccc(C[C@H](N)C(=O)O)cc1; C18 diacid = O=C(O)CCCCCCCCCCCCCCCCC(=O)*; C16 diacid = O=C(O)CCCCCCCCCCCCCCC(=O)*; γGlu = O=C(O)[C@H](CCC(=O)[*:2])N[*:1]; Met(O2) = CS(=O)(=O)CC[C@H](N)C(=O)O; αMeD = C[C@](N)(CC(=O)O)C(=O)O; AEEA = NCCOCCOCC(=O)O; Aib = CC(C)(N)C(=O)O; C16 = lipid (C16)
# B1: TP610 (peptide)
# peptide: H[Aib]QGTFTSDYSKYL[αMeD]ARAAK([AEEA-AEEA-γGlu-C18 diacid])DFVQWL[Met(O2)][αMeD]T-NH2
# modifications: N-terminus assumed
# SMILES: CC(C)C[C@H](NC(=O)[C@H](Cc1c[nH]c2ccccc12)NC(=O)[C@H](CCC(N)=O)NC(=O)[C@@H](NC(=O)[C@H](Cc1ccccc1)NC(=O)[C@H](CC(=O)O)NC(=O)[C@H](CCCCNC(=O)COCCOCCNC(=O)COCCOCCNC(=O)CC[C@H](NC(=O)CCCCCCCCCCCCCCCCC(=O)O)C(=O)O)NC(=O)[C@H](C)NC(=O)[C@H](C)NC(=O)[C@H](CCCNC(=N)N)NC(=O)[C@H](C)NC(=O)[C@](C)(CC(=O)O)NC(=O)[C@H](CC(C)C)NC(=O)[C@H](Cc1ccc(O)cc1)NC(=O)[C@H](CCCCN)NC(=O)[C@H](CO)NC(=O)[C@H](Cc1ccc(O)cc1)NC(=O)[C@H](CC(=O)O)NC(=O)[C@H](CO)NC(=O)[C@@H](NC(=O)[C@H](Cc1ccccc1)NC(=O)[C@@H](NC(=O)CNC(=O)[C@H](CCC(N)=O)NC(=O)C(C)(C)NC(=O)[C@@H](N)Cc1c[nH]cn1)[C@@H](C)O)[C@@H](C)O)C(C)C)C(=O)N[C@@H](CCS(C)(=O)=O)C(=O)N[C@@](C)(CC(=O)O)C(=O)N[C@H](C(N)=O)[C@@H](C)O
# B2: TP583 (peptide)
# peptide: H[Aib]QGTFTSDYSKYLDARAAQDFV[Phe(4-CH2NH2)]([AEEA-AEEA-γGlu-C18 diacid])WLLDT-NH2
# modifications: N-terminus assumed
# SMILES: CC(C)C[C@H](NC(=O)[C@H](Cc1ccc(O)cc1)NC(=O)[C@H](CCCCN)NC(=O)[C@H](CO)NC(=O)[C@H](Cc1ccc(O)cc1)NC(=O)[C@H](CC(=O)O)NC(=O)[C@H](CO)NC(=O)[C@@H](NC(=O)[C@H](Cc1ccccc1)NC(=O)[C@@H](NC(=O)CNC(=O)[C@H](CCC(N)=O)NC(=O)C(C)(C)NC(=O)[C@@H](N)Cc1c[nH]cn1)[C@@H](C)O)[C@@H](C)O)C(=O)N[C@@H](CC(=O)O)C(=O)N[C@@H](C)C(=O)N[C@@H](CCCNC(=N)N)C(=O)N[C@@H](C)C(=O)N[C@@H](C)C(=O)N[C@@H](CCC(N)=O)C(=O)N[C@@H](CC(=O)O)C(=O)N[C@@H](Cc1ccccc1)C(=O)N[C@H](C(=O)N[C@@H](Cc1ccc(CNC(=O)COCCOCCNC(=O)COCCOCCNC(=O)CC[C@H](NC(=O)CCCCCCCCCCCCCCCCC(=O)O)C(=O)O)cc1)C(=O)N[C@@H](Cc1c[nH]c2ccccc12)C(=O)N[C@@H](CC(C)C)C(=O)N[C@@H](CC(C)C)C(=O)N[C@@H](CC(=O)O)C(=O)N[C@H](C(N)=O)[C@@H](C)O)C(C)C
# B3: TP596 (peptide)
# peptide: H[Aib]QGTFLSDYSKYLDARAAK([AEEA-AEEA-γGlu-C18 diacid])DFVQWL[Met(O2)]DT-NH2
# modifications: N-terminus assumed
# SMILES: CC(C)C[C@H](NC(=O)[C@H](Cc1ccc(O)cc1)NC(=O)[C@H](CCCCN)NC(=O)[C@H](CO)NC(=O)[C@H](Cc1ccc(O)cc1)NC(=O)[C@H](CC(=O)O)NC(=O)[C@H](CO)NC(=O)[C@H](CC(C)C)NC(=O)[C@H](Cc1ccccc1)NC(=O)[C@@H](NC(=O)CNC(=O)[C@H](CCC(N)=O)NC(=O)C(C)(C)NC(=O)[C@@H](N)Cc1c[nH]cn1)[C@@H](C)O)C(=O)N[C@@H](CC(=O)O)C(=O)N[C@@H](C)C(=O)N[C@@H](CCCNC(=N)N)C(=O)N[C@@H](C)C(=O)N[C@@H](C)C(=O)N[C@@H](CCCCNC(=O)COCCOCCNC(=O)COCCOCCNC(=O)CC[C@H](NC(=O)CCCCCCCCCCCCCCCCC(=O)O)C(=O)O)C(=O)N[C@@H](CC(=O)O)C(=O)N[C@@H](Cc1ccccc1)C(=O)N[C@H](C(=O)N[C@@H](CCC(N)=O)C(=O)N[C@@H](Cc1c[nH]c2ccccc12)C(=O)N[C@@H](CC(C)C)C(=O)N[C@@H](CCS(C)(=O)=O)C(=O)N[C@@H](CC(=O)O)C(=O)N[C@H](C(N)=O)[C@@H](C)O)C(C)C
# B4: TP611 (peptide)
# peptide: HXQGTFTSDYSKYLDARAAXXFVQWLXXT
# modifications: Aib (U) at 2; K(PEG2PEG2γEC18-OH) at 20; αMD at 21; L-methionine sulphone (2) at 27; αMD at 28; C-terminal amide
# B5: TP612 (peptide)
# peptide: H[Aib]QGTFTSDYSKYL[αMeD]ARAAK([AEEA-AEEA-γGlu-C18 diacid])[αMeD]FVQWL[Met(O2)][αMeD]T-NH2
# modifications: N-terminus assumed
# SMILES: CC(C)C[C@H](NC(=O)[C@H](Cc1c[nH]c2ccccc12)NC(=O)[C@H](CCC(N)=O)NC(=O)[C@@H](NC(=O)[C@H](Cc1ccccc1)NC(=O)[C@](C)(CC(=O)O)NC(=O)[C@H](CCCCNC(=O)COCCOCCNC(=O)COCCOCCNC(=O)CC[C@H](NC(=O)CCCCCCCCCCCCCCCCC(=O)O)C(=O)O)NC(=O)[C@H](C)NC(=O)[C@H](C)NC(=O)[C@H](CCCNC(=N)N)NC(=O)[C@H](C)NC(=O)[C@](C)(CC(=O)O)NC(=O)[C@H](CC(C)C)NC(=O)[C@H](Cc1ccc(O)cc1)NC(=O)[C@H](CCCCN)NC(=O)[C@H](CO)NC(=O)[C@H](Cc1ccc(O)cc1)NC(=O)[C@H](CC(=O)O)NC(=O)[C@H](CO)NC(=O)[C@@H](NC(=O)[C@H](Cc1ccccc1)NC(=O)[C@@H](NC(=O)CNC(=O)[C@H](CCC(N)=O)NC(=O)C(C)(C)NC(=O)[C@@H](N)Cc1c[nH]cn1)[C@@H](C)O)[C@@H](C)O)C(C)C)C(=O)N[C@@H](CCS(C)(=O)=O)C(=O)N[C@@](C)(CC(=O)O)C(=O)N[C@H](C(N)=O)[C@@H](C)O
# B6: TP599 (peptide)
# peptide: H[Aib]QGTFTSDYSKYLDALAAK([AEEA-AEEA-γGlu-C18 diacid])DFVQWL[Met(O2)]DT-NH2
# modifications: N-terminus assumed
# SMILES: CC(C)C[C@H](NC(=O)[C@H](C)NC(=O)[C@H](CC(=O)O)NC(=O)[C@H](CC(C)C)NC(=O)[C@H](Cc1ccc(O)cc1)NC(=O)[C@H](CCCCN)NC(=O)[C@H](CO)NC(=O)[C@H](Cc1ccc(O)cc1)NC(=O)[C@H](CC(=O)O)NC(=O)[C@H](CO)NC(=O)[C@@H](NC(=O)[C@H](Cc1ccccc1)NC(=O)[C@@H](NC(=O)CNC(=O)[C@H](CCC(N)=O)NC(=O)C(C)(C)NC(=O)[C@@H](N)Cc1c[nH]cn1)[C@@H](C)O)[C@@H](C)O)C(=O)N[C@@H](C)C(=O)N[C@@H](C)C(=O)N[C@@H](CCCCNC(=O)COCCOCCNC(=O)COCCOCCNC(=O)CC[C@H](NC(=O)CCCCCCCCCCCCCCCCC(=O)O)C(=O)O)C(=O)N[C@@H](CC(=O)O)C(=O)N[C@@H](Cc1ccccc1)C(=O)N[C@H](C(=O)N[C@@H](CCC(N)=O)C(=O)N[C@@H](Cc1c[nH]c2ccccc12)C(=O)N[C@@H](CC(C)C)C(=O)N[C@@H](CCS(C)(=O)=O)C(=O)N[C@@H](CC(=O)O)C(=O)N[C@H](C(N)=O)[C@@H](C)O)C(C)C
# B7: TP602 (peptide)
# peptide: H[Aib]QGTFTSDYSKYLDARAAQDFVQWL[Met(O2)]K([AEEA-AEEA-γGlu-C18 diacid])T-NH2
# modifications: N-terminus assumed
# SMILES: CC(C)C[C@H](NC(=O)[C@H](Cc1ccc(O)cc1)NC(=O)[C@H](CCCCN)NC(=O)[C@H](CO)NC(=O)[C@H](Cc1ccc(O)cc1)NC(=O)[C@H](CC(=O)O)NC(=O)[C@H](CO)NC(=O)[C@@H](NC(=O)[C@H](Cc1ccccc1)NC(=O)[C@@H](NC(=O)CNC(=O)[C@H](CCC(N)=O)NC(=O)C(C)(C)NC(=O)[C@@H](N)Cc1c[nH]cn1)[C@@H](C)O)[C@@H](C)O)C(=O)N[C@@H](CC(=O)O)C(=O)N[C@@H](C)C(=O)N[C@@H](CCCNC(=N)N)C(=O)N[C@@H](C)C(=O)N[C@@H](C)C(=O)N[C@@H](CCC(N)=O)C(=O)N[C@@H](CC(=O)O)C(=O)N[C@@H](Cc1ccccc1)C(=O)N[C@H](C(=O)N[C@@H](CCC(N)=O)C(=O)N[C@@H](Cc1c[nH]c2ccccc12)C(=O)N[C@@H](CC(C)C)C(=O)N[C@@H](CCS(C)(=O)=O)C(=O)N[C@@H](CCCCNC(=O)COCCOCCNC(=O)COCCOCCNC(=O)CC[C@H](NC(=O)CCCCCCCCCCCCCCCCC(=O)O)C(=O)O)C(=O)N[C@H](C(N)=O)[C@@H](C)O)C(C)C
# Target: human Glucagon receptor (GCGR) (human, UniProt P47871 26-477)
# Sequence (P47871 26-477): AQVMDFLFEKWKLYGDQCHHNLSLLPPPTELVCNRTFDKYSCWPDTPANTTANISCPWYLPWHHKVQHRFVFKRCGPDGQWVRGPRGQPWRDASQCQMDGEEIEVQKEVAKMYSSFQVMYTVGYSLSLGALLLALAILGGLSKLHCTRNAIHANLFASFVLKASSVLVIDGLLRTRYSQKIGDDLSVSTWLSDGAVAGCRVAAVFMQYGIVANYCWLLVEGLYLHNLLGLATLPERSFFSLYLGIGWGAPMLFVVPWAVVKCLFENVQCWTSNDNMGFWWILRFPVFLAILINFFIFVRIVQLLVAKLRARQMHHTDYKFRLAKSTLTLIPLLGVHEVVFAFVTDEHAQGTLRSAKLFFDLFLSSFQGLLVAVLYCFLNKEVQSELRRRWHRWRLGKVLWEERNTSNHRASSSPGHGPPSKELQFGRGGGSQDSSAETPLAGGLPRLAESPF
# Assay: cell-based or functional assay
row,Binder,GCGR EC50 human [nM]
1,B1,0.19
2,B2,6.37
3,B3,0.35
4,H[Aib]QGTFTSDK([γGlu-γGlu-C16])SKYLDARAAK([AEEA-AEEA-γGlu-C16 diacid])DFVQWL[Met(O2)]DT-NH2 [TP606],1.01
5,H[Aib]QGTFTSDYSKYLDARAAQDFVQWL[Met(O2)][Phe(4-CH2NH2)]([AEEA-AEEA-γGlu-C20‑OH])T-NH2 [TP605],3.75
6,B4,0.2
7,H[Aib]QGTFTSDYSKYLDARAAQDFVQWL[Met(O2)]K([AEEA-AEEA-γGlu-C20‑OH])T-NH2 [TP603],1.88
8,H[Aib]QGTFTSDK([γGlu-γGlu-C16])SKYLDARAAK([AEEA-AEEA-γGlu-C18 diacid])DFVQWL[Met(O2)]DT-NH2 [TP601],1.8
9,B5,2.04
10,B6,3.47
11,H[Aib]QGTFTSDK([γGlu-γGlu-C16])SKYLDARAAQDFVK([AEEA-AEEA-γGlu-C16 diacid])WL[Met(O2)][αMeD]T-NH2 [TP607],0.57
12,B7,2.17

# Target: human GLP-1 receptor (GLP1R) (human, UniProt P43220 24-463)
# Assay: cell-based or functional assay
row,Binder,GLP1R EC50 human [nM]
1,B1,> 5
2,B2,0.74
3,B3,> 20
4,H[Aib]QGTFTSDK([γGlu-γGlu-C16])SKYLDARAAK([AEEA-AEEA-γGlu-C16 diacid])DFVQWL[Met(O2)]DT-NH2 [TP606],1.84
5,H[Aib]QGTFTSDYSKYLDARAAQDFVQWL[Met(O2)][Phe(4-CH2NH2)]([AEEA-AEEA-γGlu-C20‑OH])T-NH2 [TP605],1.98
6,B4,> 5
7,H[Aib]QGTFTSDYSKYLDARAAQDFVQWL[Met(O2)]K([AEEA-AEEA-γGlu-C20‑OH])T-NH2 [TP603],1.17
8,H[Aib]QGTFTSDK([γGlu-γGlu-C16])SKYLDARAAK([AEEA-AEEA-γGlu-C18 diacid])DFVQWL[Met(O2)]DT-NH2 [TP601],8.5
9,B5,4.95
10,B6,2.21
11,H[Aib]QGTFTSDK([γGlu-γGlu-C16])SKYLDARAAQDFVK([AEEA-AEEA-γGlu-C16 diacid])WL[Met(O2)][αMeD]T-NH2 [TP607],1.06
12,B7,0.36
